Assay results published in the Immune Epitope Database (IEDB).

Key:
HLA-A*01:01 [1] = assay: IEDB peptide-MHC binding, purified MHC/direct/fluorescence; filed as Kd, often an IC50 or EC50 that approximates it; ≥ and ≤ were set here for values at or beyond the usual limits of such assays
HLA-A*03:01 [2] = assay: as above
HLA-A*11:01 [3] = assay: as above
HLA-A*26:01 = assay: as above; conditions: source organism: Giardia lamblia ATCC 50803
HLA-A*31:01 = assay: as above
HLA-A*69:01 = assay: as above
HLA-B*07:02 = assay: as above
HLA-B*08:01 = assay: as above
HLA-B*15:01 [4] = assay: as above
HLA-B*27:05 = assay: as above; conditions: source organism: Giardia lamblia ATCC 50803
HLA-B*40:01 = assay: as above; conditions: source organism: Giardia lamblia ATCC 50803
HLA-B*44:02 = assay: as above
HLA-B*58:01 = assay: as above
HLA-B*15:42 = assay: IEDB peptide-MHC binding, purified MHC/competitive/fluorescence; filed as Kd, often an IC50 or EC50 that approximates it; ≥ and ≤ were set here for values at or beyond the usual limits of such assays; conditions: source organism: Giardia lamblia ATCC 50803
HLA-B*45:06 = assay: as above; conditions: source organism: Giardia lamblia ATCC 50803
HLA-B*83:01 = assay: as above; conditions: source organism: Giardia lamblia ATCC 50803
HLA-C*03:03 = assay: IEDB peptide-MHC binding, purified MHC/direct/fluorescence; filed as Kd, often an IC50 or EC50 that approximates it; ≥ and ≤ were set here for values at or beyond the usual limits of such assays
HLA-A*24:03 = assay: IEDB peptide-MHC binding, purified MHC/competitive/fluorescence; filed as Kd, often an IC50 or EC50 that approximates it; ≥ and ≤ were set here for values at or beyond the usual limits of such assays; conditions: source organism: Bacillus anthracis str. A2012
HLA-C*07:02 = assay: IEDB peptide-MHC binding, purified MHC/direct/fluorescence; filed as Kd, often an IC50 or EC50 that approximates it; ≥ and ≤ were set here for values at or beyond the usual limits of such assays
HLA-B*35:01 = assay: IEDB peptide-MHC binding, purified MHC/competitive/radioactivity; filed as Kd, often an IC50 or EC50 that approximates it; ≥ and ≤ were set here for values at or beyond the usual limits of such assays; conditions: source organism: SARS coronavirus Tor2
HLA-B*51:01 = assay: as above; conditions: source organism: SARS coronavirus Tor2
HLA-B*53:01 = assay: as above; conditions: source organism: SARS coronavirus Tor2
HLA-B*54:01 = assay: as above; conditions: source organism: SARS coronavirus Tor2
HLA-A*02:01 [5] = assay: IEDB peptide-MHC binding, purified MHC/direct/fluorescence; filed as Kd, often an IC50 or EC50 that approximates it; ≥ and ≤ were set here for values at or beyond the usual limits of such assays
HLA-A*29:02 = assay: as above; conditions: source organism: Mammarenavirus juninense
HLA-B*18:01 = assay: as above; conditions: source organism: Mammarenavirus juninense
HLA-B*46:01 = assay: as above; conditions: source organism: Mammarenavirus juninense
HLA-B*48:01 = assay: as above; conditions: source organism: Mammarenavirus juninense
HLA-B*57:01 = assay: as above; conditions: source organism: Mammarenavirus juninense
HLA-B*39:01 = assay: IEDB peptide-MHC binding, purified MHC/competitive/fluorescence; filed as Kd, often an IC50 or EC50 that approximates it; ≥ and ≤ were set here for values at or beyond the usual limits of such assays; conditions: source organism: Mammarenavirus juninense
HLA-A*01:01 [6] = assay: IEDB peptide-MHC binding, purified MHC/competitive/fluorescence; ≥ and ≤ were set here for values at or beyond the usual limits of such assays
HLA-A*02:01 [7] = assay: as above
HLA-A*03:01 [8] = assay: as above; conditions: source organism: Zaire ebolavirus
HLA-A*11:01 [9] = assay: as above; conditions: source organism: Zaire ebolavirus
HLA-B*15:01 [10] = assay: as above; conditions: source organism: Zaire ebolavirus
HLA-A*24:02 = assay: as above; conditions: source organism: Zaire ebolavirus
HLA-A*30:01 = assay: IEDB peptide-MHC binding, purified MHC/direct/fluorescence; filed as Kd, often an IC50 or EC50 that approximates it; ≥ and ≤ were set here for values at or beyond the usual limits of such assays; conditions: source organism: Camelpox virus CMS
[11] = source organism: Giardia lamblia ATCC 50803
[12] = source organism: Mammarenavirus juninense
[13] = source organism: Zaire ebolavirus
[14] = source organism: Camelpox virus CMS
[15] = source organism: Brucella abortus 2308
[16] = source organism: Sudan ebolavirus
[17] = source organism: Yellow fever virus

Sequence: AEFPVGSTA
- Kd (HLA-A*01:01 [1]; [11]): ≥ 20 µM
- Kd (HLA-A*03:01 [2]; [11]): ≥ 20 µM
- Kd (HLA-A*11:01 [3]; [11]): ≥ 20 µM
- Kd (HLA-A*26:01): ≥ 20 µM
- Kd (HLA-A*31:01; [11]): ≥ 20 µM
- Kd (HLA-A*69:01; [11]): ≥ 20 µM
- Kd (HLA-B*07:02; [11]): ≥ 20 µM
- Kd (HLA-B*08:01; [11]): ≥ 20 µM
- Kd (HLA-B*15:01 [4]; [11]): ≥ 20 µM
- Kd (HLA-B*27:05): ≥ 20 µM
- Kd (HLA-B*40:01): 0.41 µM
- Kd (HLA-B*44:02; [11]): ≥ 20 µM
- Kd (HLA-B*58:01; [11]): ≥ 20 µM
- Kd (HLA-B*15:42): ≥ 5 µM
- Kd (HLA-B*45:06): ≥ 5 µM
- Kd (HLA-B*83:01): ≥ 5 µM

Sequence: FAKPAGTPM
- Kd (HLA-C*03:03; source organism: Burkholderia cenocepacia HI2424): ≤ 0.001 µM

Sequence: FFSPVIASL
- Kd (HLA-C*03:03; source organism: Bacillus anthracis str. A2012): ≤ 0.001 µM
- Kd (HLA-A*24:03): ≤ 0.0001 µM

Sequence: FPREGVFVF
- Kd (HLA-B*07:02; source organism: SARS-CoV1): 0.131 µM
- Kd (HLA-B*08:01; source organism: SARS-CoV1): 0.116 µM
- Kd (HLA-B*15:01 [4]; source organism: SARS-CoV1): 2.14 µM
- Kd (HLA-C*07:02; source organism: SARS-CoV1): 0.51 µM
- Kd (HLA-B*35:01): 0.000684 µM
- Kd (HLA-B*51:01): 0.0314 µM
- Kd (HLA-B*53:01): 0.00536 µM
- Kd (HLA-B*54:01): 0.0925 µM

Sequence: FRRVAHSSL
- Kd (HLA-A*01:01 [1]; [12]): ≥ 20 µM
- Kd (HLA-A*02:01 [5]; [12]): ≥ 20 µM
- Kd (HLA-A*03:01 [2]; [12]): ≥ 20 µM
- Kd (HLA-A*29:02): ≥ 20 µM
- Kd (HLA-A*31:01; [12]): ≥ 20 µM
- Kd (HLA-A*69:01; [12]): ≥ 20 µM
- Kd (HLA-B*15:01 [4]; [12]): ≥ 20 µM
- Kd (HLA-B*18:01): ≥ 20 µM
- Kd (HLA-B*44:02; [12]): ≥ 20 µM
- Kd (HLA-B*46:01): ≥ 20 µM
- Kd (HLA-B*48:01): ≥ 20 µM
- Kd (HLA-B*57:01): ≥ 20 µM
- Kd (HLA-B*58:01; [12]): ≥ 20 µM
- Kd (HLA-C*07:02; [12]): 0.053 µM
- Kd (HLA-B*39:01): 0.377 µM

Sequence: GSYGEYQSY
- IC50 (HLA-A*01:01 [6]; [13]): 9.91 µM
- IC50 (HLA-A*02:01 [7]; [13]): ≥ 154 µM
- IC50 (HLA-A*03:01 [8]): 26.1 µM
- IC50 (HLA-A*11:01 [9]): 1.29 µM
- IC50 (HLA-B*15:01 [10]): 3.51 µM

Sequence: GTNETEYLF
- IC50 (HLA-A*01:01 [6]; [13]): ≥ 373 µM
- IC50 (HLA-A*02:01 [7]; [13]): 20.9 µM
- IC50 (HLA-A*24:02): 8.71 µM

Sequence: HYRPYHYYH
- Kd (HLA-A*03:01 [2]; [14]): ≥ 20 µM
- Kd (HLA-A*11:01 [3]; [14]): ≥ 20 µM
- Kd (HLA-A*30:01): 0.023 µM
- Kd (HLA-A*31:01; [14]): 0.0032 µM
- Kd (HLA-C*07:02; [14]): 0.013 µM

Sequence: KQLEYSWVL
- Kd (HLA-A*02:01 [5]; [15]): 0.0017 µM
- Kd (HLA-A*69:01; [15]): 0.846 µM
- Kd (HLA-C*03:03; source organism: Brucella canis ATCC 23365): ≥ 20 µM

Sequence: VSYEAGEWA
- IC50 (HLA-A*01:01 [6]; [16]): 50.3 µM
- IC50 (HLA-A*02:01 [7]; [16]): 15 µM

Sequence: YLIIGILTL
- Kd (HLA-A*69:01; [17]): ≥ 20 µM
- Kd (HLA-C*03:03; [17]): 0.018 µM
